Patent publication US20170298113A1 (TEL HASHOMER MEDICAL RESEARCH INFRASTRUCTURE AND SERVICES, published 2017)
*1 amine or outer side, *2 acyl side, *3 side chain or, on linkers, in order; H or OH if unused. Bridges are numbered along the chain shown (N, C = ends). Primed or numbered codes have the meaning given here. [ ]: non-standard residue; d: D form. N(2-mercaptoethyl)Gly = O=C(CN(CCS[*:3])[*:1])[*:2]; FITC′ = fluorescein isothiocyanate; GABA = NCCCC(=O)O

Key:
[1] = biological target: T1, human somatostatin receptor subtype SSTR4 (human, UniProt P31391 1-388); experiment: FACS, transfected HEK-293 cells
T1 construct: whole, on cells
T1 sequence (P31391 whole entry): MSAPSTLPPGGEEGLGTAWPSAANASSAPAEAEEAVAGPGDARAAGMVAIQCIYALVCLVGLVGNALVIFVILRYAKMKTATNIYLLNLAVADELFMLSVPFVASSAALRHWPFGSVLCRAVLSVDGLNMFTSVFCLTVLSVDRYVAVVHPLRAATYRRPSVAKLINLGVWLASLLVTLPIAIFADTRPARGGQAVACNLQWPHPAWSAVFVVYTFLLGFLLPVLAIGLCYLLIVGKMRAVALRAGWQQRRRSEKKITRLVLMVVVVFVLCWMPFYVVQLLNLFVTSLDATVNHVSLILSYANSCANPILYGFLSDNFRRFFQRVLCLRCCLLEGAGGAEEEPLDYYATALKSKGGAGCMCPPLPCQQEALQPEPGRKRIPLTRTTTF
Description: (§1) Biological activity assessment of the compounds to define a specific affinity to each subtype was performed by FACS and fluorescence imaging methods.
(§2) The transfection process is illustrated in FIG. 1. The transient transfection process was carried out before each experiment. Briefly, HEK cells were cultured in standard cell growth conditions. For testing, the cells were transferred into 96-well plates. The tested compounds were dissolved in DMSO and then diluted in a buffer solution to a final DMSO concentration of 5% as a composition according to the teachings herein. Various amounts of the thus-prepared compositions were added to the cells in medium in the 96-well plates and allowed to incubate for between 1 and 24 hours. Binding was determined using fluorescent microscopy and FACS.
(§3) The cells were incubated for additional time intervals ranging from 0.5-24 hr. At the end of the incubation period, supernatant was discarded and the cells were washed twice with cold PBS. The plates were examined using IX81 inverted microscope (Olympus, Japan) equipped with PR71 digital camera. Additionally, a FACS assay was used for quantitative analysis.

[2] = biological target: T2, human somatostatin receptor subtype SSTR5 (human, UniProt P35346 1-364); experiment: FACS, transfected HEK-293 cells
T2 construct: whole, on cells; also called SSTRS
T2 sequence (P35346 whole entry): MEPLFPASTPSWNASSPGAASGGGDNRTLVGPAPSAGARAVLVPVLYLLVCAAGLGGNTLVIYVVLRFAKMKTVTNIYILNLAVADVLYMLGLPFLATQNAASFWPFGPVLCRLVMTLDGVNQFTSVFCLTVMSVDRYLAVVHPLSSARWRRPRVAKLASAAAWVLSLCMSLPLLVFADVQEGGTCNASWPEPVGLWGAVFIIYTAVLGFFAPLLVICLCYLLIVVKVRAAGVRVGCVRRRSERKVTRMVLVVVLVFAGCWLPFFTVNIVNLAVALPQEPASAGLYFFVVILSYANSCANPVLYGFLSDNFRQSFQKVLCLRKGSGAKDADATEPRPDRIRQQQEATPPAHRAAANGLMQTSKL
Description: as §1, §2, §3

[3] = biological target: T3, human somatostatin receptor subtype SSTR3 (human, UniProt P32745 1-418); experiment: FACS, transfected HEK-293 cells
T3 construct: whole, on cells
T3 sequence (P32745 whole entry): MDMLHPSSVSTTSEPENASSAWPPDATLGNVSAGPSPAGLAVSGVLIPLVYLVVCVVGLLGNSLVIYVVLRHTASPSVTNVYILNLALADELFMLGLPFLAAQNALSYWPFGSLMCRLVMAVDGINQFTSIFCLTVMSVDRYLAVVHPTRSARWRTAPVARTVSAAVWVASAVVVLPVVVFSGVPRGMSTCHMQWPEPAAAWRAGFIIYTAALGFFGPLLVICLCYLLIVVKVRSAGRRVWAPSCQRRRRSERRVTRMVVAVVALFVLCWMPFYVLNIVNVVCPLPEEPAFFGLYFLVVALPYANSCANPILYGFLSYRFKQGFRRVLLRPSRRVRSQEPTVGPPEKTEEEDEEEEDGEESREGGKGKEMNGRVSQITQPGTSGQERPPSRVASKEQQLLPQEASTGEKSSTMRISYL
Description: as §1, §2, §3

[4] = biological target: T4, human somatostatin receptor subtype SSTR2 (human, UniProt P30874 1-369); experiment: FACS, transfected HEK-293 cells
T4 construct: whole, on cells
T4 sequence (P30874 whole entry): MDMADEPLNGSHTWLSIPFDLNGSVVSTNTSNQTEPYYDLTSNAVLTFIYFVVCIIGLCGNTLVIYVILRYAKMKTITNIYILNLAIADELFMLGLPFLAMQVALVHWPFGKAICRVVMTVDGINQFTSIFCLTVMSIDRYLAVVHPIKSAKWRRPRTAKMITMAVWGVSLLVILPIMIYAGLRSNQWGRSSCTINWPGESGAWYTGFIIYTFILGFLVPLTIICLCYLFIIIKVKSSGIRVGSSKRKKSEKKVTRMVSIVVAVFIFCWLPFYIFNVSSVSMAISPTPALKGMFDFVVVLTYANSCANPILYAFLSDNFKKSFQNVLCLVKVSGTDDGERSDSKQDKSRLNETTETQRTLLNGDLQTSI
Description: as §1, §2, §3

[5] = biological target: T5, human somatostatin receptor subtype SSTR1 (human, UniProt P30872 1-391); experiment: FACS, transfected HEK-293 cells; row normalised to highest
T5 construct: whole, on cells
T5 sequence (P30872 whole entry): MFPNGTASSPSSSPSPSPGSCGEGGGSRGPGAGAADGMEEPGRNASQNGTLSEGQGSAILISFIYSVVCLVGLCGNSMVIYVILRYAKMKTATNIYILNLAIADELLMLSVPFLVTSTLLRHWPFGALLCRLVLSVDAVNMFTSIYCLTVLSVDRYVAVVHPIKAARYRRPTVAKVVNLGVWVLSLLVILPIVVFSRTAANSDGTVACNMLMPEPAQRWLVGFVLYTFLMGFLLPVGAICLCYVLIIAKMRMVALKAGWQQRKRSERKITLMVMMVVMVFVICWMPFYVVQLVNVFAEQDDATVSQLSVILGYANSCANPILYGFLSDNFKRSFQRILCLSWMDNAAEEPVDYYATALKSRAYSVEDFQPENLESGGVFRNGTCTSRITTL
Description: as §1, §2, §3

[6] = biological target: T1, human somatostatin receptor subtype …; experiment: as above
Description: as §1, §2, §3

[7] = biological target: T2, human somatostatin receptor subtype …; experiment: as above
Description: as §1, §2, §3

[8] = biological target: T3, human somatostatin receptor subtype …; experiment: as above
Description: as §1, §2, §3

[9] = biological target: T4, human somatostatin receptor subtype …; experiment: as above
Description: as §1, §2, §3

[10] = biological target: T5, human somatostatin receptor subtype …; experiment: FACS, transfected HEK-293 cells; normalised to Compound 1
Description: as §1, §2, §3

[11] = biological target: T1, human somatostatin receptor subtype …; experiment: as above
Description: as §1, §2, §3

[12] = biological target: T2, human somatostatin receptor subtype …; experiment: as above
Description: as §1, §2, §3

[13] = biological target: T3, human somatostatin receptor subtype …; experiment: as above
Description: as §1, §2, §3

[14] = biological target: T4, human somatostatin receptor subtype …; experiment: as above
Description: as §1, §2, §3

- Relative binding affinity [1]: 15%
- Relative binding affinity [2]: 20%
- Relative binding affinity [3]: 14%
- Relative binding affinity [4]: 10%
- Adjusted binding affinity [5]: 0
- Adjusted binding affinity [6]: 0.75
- Adjusted binding affinity [7]: 1
- Adjusted binding affinity [8]: 0.7
- Adjusted binding affinity [9]: 0.5
- Binding affinity relative to Compound 1 [10]: 0 % of Compound 1
- Binding affinity relative to Compound 1 [11]: 67 % of Compound 1
- Binding affinity relative to Compound 1 [12]: 70 % of Compound 1
- Binding affinity relative to Compound 1 [13]: 82 % of Compound 1
- Binding affinity relative to Compound 1 [14]: 154 % of Compound 1
B1: Compound 9 (peptide)
peptide: {FITC′-GABA}-CRF[dW]KTF[N(2-mercaptoethyl)Gly]-NH2
modifications: disulfide 1-8
notes: Synthetic cyclic peptide-fluorescent agent conjugate; also called 21
